Results reported in the supplement of paper PMC9112550, “Optimization of the antimicrobial peptide Bac7 by deep mutational scanning” (BMC Biology, 2022).

Tested on: Escherichia coli TOP10
Test: shrunken log2 fold change of peptide-encoding DNA abundance (4.5 h post-induction vs induction); higher = less antimicrobial activity (less host growth inhibition)
Conditions: time post-induction: 4.5 h; library: site-saturation at positions 5, 18, 19, 20
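Note: peptides expressed intracellularly from a pBAD plasmid library in pooled LB shake-flask culture, induced with 0.3% L-arabinose, DNA abundance read by NGS, three biological replicates, DESeq2 with apeglm shrinkage.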

For RRIRWRPPRLPRPRPRPHFQPRP, the “shrunken log2 fold change” value was -0.183.
RRIRLRPPRLPRPRPRPDLYPRP was tested, and the “shrunken log2 fold change” value was -0.0419.
In the case of RRIRKRPPRLPRPRPRPGNTPRP, the “shrunken log2 fold change” value was -0.0331.
In the case of RRIRNRPPRLPRPRPRPCTTPRP, the “shrunken log2 fold change” value was -0.213.
RRIRWRPPRLPRPRPRPDVHPRP was tested, and the “shrunken log2 fold change” value was -0.0103.
With RRIRGRPPRLPRPRPRPIGQPRP the “shrunken log2 fold change” value was 0.0805.
In the case of RRIRVRPPRLPRPRPRPQHWPRP, the “shrunken log2 fold change” value was 0.171.
RRIRARPPRLPRPRPRPLSTPRP was tested, and the “shrunken log2 fold change” value was 0.319.
RRIRKRPPRLPRPRPRPQQMPRP was tested, and the “shrunken log2 fold change” value was 0.313.
In the case of RRIRKRPPRLPRPRPRPSYHPRP, the “shrunken log2 fold change” value was 2.31.
For RRIRSRPPRLPRPRPRPWAWPRP, the “shrunken log2 fold change” value was -0.131.
In the case of RRIRERPPRLPRPRPRPPEEPRP, the “shrunken log2 fold change” value was 0.499.
With RRIRCRPPRLPRPRPRPVPTPRP the “shrunken log2 fold change” value was 0.116.
In the case of RRIRIRPPRLPRPRPRPVFLPRP, the “shrunken log2 fold change” value was -0.51.
In the case of RRIRPRPPRLPRPRPRPCQAPRP, the “shrunken log2 fold change” value was 0.00851.
For RRIRQRPPRLPRPRPRPTYDPRP, the “shrunken log2 fold change” value was -0.338.
With RRIRFRPPRLPRPRPRPIVYPRP the “shrunken log2 fold change” value was -0.181.
In the case of RRIRRRPPRLPRPRPRPEIIPRP, the “shrunken log2 fold change” value was 0.0119.
In the case of RRIRMRPPRLPRPRPRPWFKPRP, the “shrunken log2 fold change” value was -0.665.
In the case of RRIRERPPRLPRPRPRPHPNPRP, the “shrunken log2 fold change” value was -0.0522.
With RRIRPRPPRLPRPRPRPRPTPRP the “shrunken log2 fold change” value was 0.869.
RRIRYRPPRLPRPRPRPFQSPRP was tested, and the “shrunken log2 fold change” value was -0.0418.
In the case of RRIRRRPPRLPRPRPRPNEKPRP, the “shrunken log2 fold change” value was -0.023.
In the case of RRIRWRPPRLPRPRPRPVSPPRP, the “shrunken log2 fold change” value was 0.175.
For RRIRKRPPRLPRPRPRPEIEPRP, the “shrunken log2 fold change” value was 2.58.
With RRIRWRPPRLPRPRPRPNWTPRP the “shrunken log2 fold change” value was 0.0351.
With RRIRGRPPRLPRPRPRPLWGPRP the “shrunken log2 fold change” value was 0.583.
For RRIRTRPPRLPRPRPRPLKVPRP, the “shrunken log2 fold change” value was -0.221.
For RRIRSRPPRLPRPRPRPYYDPRP, the “shrunken log2 fold change” value was -0.214.
With RRIRMRPPRLPRPRPRPYPAPRP the “shrunken log2 fold change” value was -0.246.
RRIRCRPPRLPRPRPRPCCPPRP was tested, and the “shrunken log2 fold change” value was -0.316.
With RRIRCRPPRLPRPRPRPHQTPRP the “shrunken log2 fold change” value was -0.0284.
RRIRRRPPRLPRPRPRPNCMPRP was tested, and the “shrunken log2 fold change” value was 0.0934.
For RRIRPRPPRLPRPRPRPFWQPRP, the “shrunken log2 fold change” value was 0.00477.
RRIRSRPPRLPRPRPRPVRQPRP was tested, and the “shrunken log2 fold change” value was 0.19.
In the case of RRIRPRPPRLPRPRPRPPGVPRP, the “shrunken log2 fold change” value was 0.517.
RRIRQRPPRLPRPRPRPYYSPRP was tested, and the “shrunken log2 fold change” value was -0.39.
In the case of RRIRFRPPRLPRPRPRPMHVPRP, the “shrunken log2 fold change” value was -0.0102.
With RRIRNRPPRLPRPRPRPYQVPRP the “shrunken log2 fold change” value was -0.0131.
RRIRRRPPRLPRPRPRPNVCPRP was tested, and the “shrunken log2 fold change” value was 0.0167.
With RRIRNRPPRLPRPRPRPHKHPRP the “shrunken log2 fold change” value was -0.719.
RRIRTRPPRLPRPRPRPYPFPRP was tested, and the “shrunken log2 fold change” value was -0.0603.
RRIRKRPPRLPRPRPRPCCYPRP was tested, and the “shrunken log2 fold change” value was 0.0681.
For RRIRMRPPRLPRPRPRPNLQPRP, the “shrunken log2 fold change” value was -0.0416.
In the case of RRIRDRPPRLPRPRPRPVNRPRP, the “shrunken log2 fold change” value was -0.131.
RRIRERPPRLPRPRPRPKHYPRP was tested, and the “shrunken log2 fold change” value was -0.373.
In the case of RRIRQRPPRLPRPRPRPLNMPRP, the “shrunken log2 fold change” value was -0.423.
For RRIRIRPPRLPRPRPRPQITPRP, the “shrunken log2 fold change” value was -1.22.
With RRIRKRPPRLPRPRPRPLKPPRP the “shrunken log2 fold change” value was 0.238.
RRIRRRPPRLPRPRPRPDLTPRP was tested, and the “shrunken log2 fold change” value was 0.521.
RRIRLRPPRLPRPRPRPMSGPRP was tested, and the “shrunken log2 fold change” value was -0.0068.
RRIRRRPPRLPRPRPRPLRRPRP was tested, and the “shrunken log2 fold change” value was 0.654.
For RRIRPRPPRLPRPRPRPANDPRP, the “shrunken log2 fold change” value was -0.155.
In the case of RRIRIRPPRLPRPRPRPVWHPRP, the “shrunken log2 fold change” value was -0.413.
RRIRSRPPRLPRPRPRPSHGPRP was tested, and the “shrunken log2 fold change” value was -0.19.
In the case of RRIRSRPPRLPRPRPRPDRCPRP, the “shrunken log2 fold change” value was -0.115.
With RRIRYRPPRLPRPRPRPCAHPRP the “shrunken log2 fold change” value was -0.0966.
RRIRCRPPRLPRPRPRPASDPRP was tested, and the “shrunken log2 fold change” value was -0.0092.
RRIRERPPRLPRPRPRPMLLPRP was tested, and the “shrunken log2 fold change” value was -0.166.
For RRIRMRPPRLPRPRPRPMPPPRP, the “shrunken log2 fold change” value was 1.07.
RRIRSRPPRLPRPRPRPCYLPRP was tested, and the “shrunken log2 fold change” value was -0.586.
RRIRARPPRLPRPRPRPWYCPRP was tested, and the “shrunken log2 fold change” value was -0.306.
RRIRVRPPRLPRPRPRPQLDPRP was tested, and the “shrunken log2 fold change” value was 0.269.
For RRIRCRPPRLPRPRPRPSLDPRP, the “shrunken log2 fold change” value was -0.203.
With RRIRNRPPRLPRPRPRPLWTPRP the “shrunken log2 fold change” value was -0.247.
RRIRYRPPRLPRPRPRPHNHPRP was tested, and the “shrunken log2 fold change” value was -1.01.
RRIRDRPPRLPRPRPRPRNLPRP was tested, and the “shrunken log2 fold change” value was -0.0438.
RRIRMRPPRLPRPRPRPYGKPRP was tested, and the “shrunken log2 fold change” value was -0.0311.
For RRIRFRPPRLPRPRPRPFVCPRP, the “shrunken log2 fold change” value was -0.398.
In the case of RRIRIRPPRLPRPRPRPLIFPRP, the “shrunken log2 fold change” value was -0.562.
With RRIRSRPPRLPRPRPRPEMRPRP the “shrunken log2 fold change” value was 0.84.
RRIRVRPPRLPRPRPRPWWMPRP was tested, and the “shrunken log2 fold change” value was -0.26.
With RRIRIRPPRLPRPRPRPIWTPRP the “shrunken log2 fold change” value was -0.0318.
For RRIRIRPPRLPRPRPRPFDMPRP, the “shrunken log2 fold change” value was -0.142.
With RRIRGRPPRLPRPRPRPQVCPRP the “shrunken log2 fold change” value was 2.63e-05.
RRIRDRPPRLPRPRPRPICEPRP was tested, and the “shrunken log2 fold change” value was 0.229.
In the case of RRIRNRPPRLPRPRPRPVKRPRP, the “shrunken log2 fold change” value was 0.0962.
In the case of RRIRMRPPRLPRPRPRPPSFPRP, the “shrunken log2 fold change” value was -0.0206.
For RRIRWRPPRLPRPRPRPEWVPRP, the “shrunken log2 fold change” value was 0.927.
In the case of RRIRVRPPRLPRPRPRPQAIPRP, the “shrunken log2 fold change” value was -0.0973.
For RRIRMRPPRLPRPRPRPPIKPRP, the “shrunken log2 fold change” value was 0.288.
With RRIRDRPPRLPRPRPRPKLMPRP the “shrunken log2 fold change” value was -0.146.
For RRIRGRPPRLPRPRPRPEQEPRP, the “shrunken log2 fold change” value was 0.0952.
RRIRHRPPRLPRPRPRPRCGPRP was tested, and the “shrunken log2 fold change” value was 0.202.
For RRIRGRPPRLPRPRPRPSMPPRP, the “shrunken log2 fold change” value was 0.0931.
RRIRGRPPRLPRPRPRPMYTPRP was tested, and the “shrunken log2 fold change” value was 0.876.
For RRIRVRPPRLPRPRPRPQCEPRP, the “shrunken log2 fold change” value was -0.0122.
With RRIRCRPPRLPRPRPRPNHGPRP the “shrunken log2 fold change” value was -0.746.
With RRIRGRPPRLPRPRPRPVVNPRP the “shrunken log2 fold change” value was 0.0184.
RRIRFRPPRLPRPRPRPDDNPRP was tested, and the “shrunken log2 fold change” value was -0.137.
In the case of RRIRPRPPRLPRPRPRPVCWPRP, the “shrunken log2 fold change” value was 0.533.
